Consider 1 molecule from article PMC5469197, “ANGUSTIFOLIA, a Plant Homolog of CtBP/BARS Localizes to Stress Granules and Regulates Their Formation” (Frontiers in Plant Science, 2017).

This assay concerns the target T1, ARGONAUTE1 (AGO1), Prot-A fusion (Arabidopsis thaliana, UniProt O04379 1-1048).
T1 construct: ARGONAUTE1, Arabidopsis thaliana, AT1G48410; CDS amplified from Col-0 cDNA; source: HEK293TN cells, transfected; not shown: Protein A (Staphylococcus aureus), N-terminal, kept
T1 sequence (looked up): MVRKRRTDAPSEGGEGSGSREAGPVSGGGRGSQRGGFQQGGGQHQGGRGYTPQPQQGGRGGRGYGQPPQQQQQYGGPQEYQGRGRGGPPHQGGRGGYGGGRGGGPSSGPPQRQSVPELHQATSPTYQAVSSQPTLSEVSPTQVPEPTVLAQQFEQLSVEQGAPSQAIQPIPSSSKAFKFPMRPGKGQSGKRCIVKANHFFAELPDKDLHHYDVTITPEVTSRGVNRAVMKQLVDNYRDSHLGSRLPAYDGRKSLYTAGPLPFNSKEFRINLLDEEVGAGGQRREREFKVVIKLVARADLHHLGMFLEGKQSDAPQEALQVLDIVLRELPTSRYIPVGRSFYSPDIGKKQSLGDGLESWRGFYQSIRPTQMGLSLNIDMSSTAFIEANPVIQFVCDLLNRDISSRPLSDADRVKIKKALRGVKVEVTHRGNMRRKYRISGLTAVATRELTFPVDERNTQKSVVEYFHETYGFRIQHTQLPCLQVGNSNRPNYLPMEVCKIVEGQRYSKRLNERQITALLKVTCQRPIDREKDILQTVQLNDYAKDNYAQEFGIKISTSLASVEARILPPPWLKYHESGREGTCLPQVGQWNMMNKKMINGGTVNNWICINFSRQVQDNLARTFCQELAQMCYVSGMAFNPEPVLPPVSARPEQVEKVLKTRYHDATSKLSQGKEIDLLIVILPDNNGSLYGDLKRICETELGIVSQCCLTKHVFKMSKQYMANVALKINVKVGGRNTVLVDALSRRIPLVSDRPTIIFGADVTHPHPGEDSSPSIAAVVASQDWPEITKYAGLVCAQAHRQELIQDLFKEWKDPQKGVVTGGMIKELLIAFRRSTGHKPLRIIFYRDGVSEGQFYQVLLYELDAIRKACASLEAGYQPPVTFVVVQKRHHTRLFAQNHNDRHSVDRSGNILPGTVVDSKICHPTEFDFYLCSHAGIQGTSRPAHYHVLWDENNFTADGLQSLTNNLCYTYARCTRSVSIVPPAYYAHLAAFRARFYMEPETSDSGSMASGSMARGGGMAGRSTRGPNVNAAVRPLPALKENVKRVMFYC
Kind of assay: co-IP; LUMIER in HEK293TN cells: Prot-A fusion co-transfected with Renilla luciferase fusion (AN always the luciferase fusion with the interactors); luciferase activity before (input) and after pulldown; percentage pulldown = pulldown/input x 100; empty vectors as negative control; positive if more than two times the background. The conditions noted are these: partners not purified.

B1: AN, Renilla luciferase fusion (LUMIER) (natural protein, Arabidopsis thaliana, UniProt O23702 1-636, looked up)
chain: MSKIRSSATMPHRDQPSPASPHVVTLNCIEDCALEQDSLAGVAGVEYVPLSRIADGKIESATAVLLHSLAYLPRAAQRRLRPHQLILCLGSADRAVDSTLAADLGLRLVHVDTSRAEEIADTVMALILGLLRRTHLLSRHALSASGWLGSLQPLCRGMRRCRGMVLGIVGRSVSARYLASRSLAFKMSVLYFDVPEGDEERIRPSRFPRAARRMDTLNDLLAASDVISLHCALTNDTVQILNAECLQHIKPGAFLVNTGSCQLLDDCAVKQLLIDGTIAGCALDGAEGPQWMEAWVKEMPNVLILPRSADYSEEVWMEIREKAISILHSFFLDGVIPSNTVSDEEVEESEASEEEEQSPSKHEKLAIVESTSRQQGESTLTSTEIVRREASELKESLSPGQQHVSQNTAVKPEGRRSRSGKKAKKRHSQQKYMQKTDGSSGLNEESTSRRDDIAMSDTEEVLSSSSRCASPEDSRSRKTPLEVMQESSPNQLVMSSKKFIGKSSELLKDGYVVALYAKDLSGLHVSRQRTKNGGWFLDTLSNVSKRDPAAQFIIAYRNKDTVGLRSFAAGGKLLQINRRMEFVFASHSFDVWESWSLEGSLDECRLVNCRNSSAVLDVRVEILAMVGDDGITRWID
notes: ANGUSTIFOLIA (AN), Arabidopsis thaliana, AT1G01510; CDS amplified from Col-0 cDNA; in the dimerisation test the second copy must have been the N-terminal protein A fusion (surmised from the LUMIER format); also called wild-type AN; source: HEK293TN cells, transfected; not shown: Renilla reniformis luciferase, N-terminal, kept
As for B1, the “fold change from background” value was 5.02 fold and the percentage pulldown amounted to 0.47%.
